Test results published in patent US20190077849A1.
Where two headings read alike, the source gives them in different places.

Tests used:
Experiment in all cases: cell-based or functional assay
[1] = biological target: HIV-1 Env of ZM106.9.SG3 pseudovirus (clade C) (HIV-1)
[2] = biological target: HIV-1 Env of YU2.DG.SG3 pseudovirus (clade B) (HIV-1) (UniProt P35961)
[3] = biological target: HIV-1 Env of TH966.8.SG3 pseudovirus (clade AE) (HIV-1)
[4] = biological target: HIV-1 Env of KER2008.12.SG3 pseudovirus (clade A) (HIV-1)
[5] = biological target: HIV-1 Env of 6101.10.SG3 pseudovirus (clade B) (HIV-1)
[6] = biological target: HIV-1 Env of ZM215.8.SG3 pseudovirus (clade C) (HIV-1)
[7] = biological target: HIV-1 Env of CNE31.SG3 pseudovirus (clade C) (HIV-1)
[8] = biological target: HIV-1 Env of PVO.04.SG3 pseudovirus (clade B) (HIV-1)
[9] = biological target: HIV-1 Env of 6095.V1.C10.SG3 pseudovirus (clade ACD) (HIV-1)
[10] = biological target: HIV-1 Env of ZM106.9.SG3 pseudovirus (clade C) (HIV-1); remark: listed apart in the source
[11] = biological target: HIV-1 Env of YU2.DG.SG3 pseudovirus (clade B) (HIV-1) (UniProt P35961); remark: listed apart in the source
[12] = biological target: HIV-1 Env of TH966.8.SG3 pseudovirus (clade AE) (HIV-1); remark: listed apart in the source
[13] = biological target: HIV-1 Env of KER2008.12.SG3 pseudovirus (clade A) (HIV-1); remark: listed apart in the source
[14] = biological target: HIV-1 Env of 6101.10.SG3 pseudovirus (clade B) (HIV-1); remark: listed apart in the source
[15] = biological target: HIV-1 Env of ZM215.8.SG3 pseudovirus (clade C) (HIV-1); remark: listed apart in the source
[16] = biological target: HIV-1 Env of CNE31.SG3 pseudovirus (clade C) (HIV-1); remark: listed apart in the source
[17] = biological target: HIV-1 Env of PVO.04.SG3 pseudovirus (clade B) (HIV-1); remark: listed apart in the source
[18] = biological target: HIV-1 Env of 6095.V1.C10.SG3 pseudovirus (clade ACD) (HIV-1); remark: listed apart in the source

Chain of 10E8v4 S100cF (antibody) (VH): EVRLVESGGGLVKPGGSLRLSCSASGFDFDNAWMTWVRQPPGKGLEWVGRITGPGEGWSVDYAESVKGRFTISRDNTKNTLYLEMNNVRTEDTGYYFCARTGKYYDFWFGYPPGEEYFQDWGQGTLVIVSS
Chain of 10E8v4 S100cF (antibody) (VL): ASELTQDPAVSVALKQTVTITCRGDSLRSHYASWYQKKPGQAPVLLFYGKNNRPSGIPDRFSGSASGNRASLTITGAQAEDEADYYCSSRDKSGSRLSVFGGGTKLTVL
Chain of 10E8v4 S100cH (antibody) (VH): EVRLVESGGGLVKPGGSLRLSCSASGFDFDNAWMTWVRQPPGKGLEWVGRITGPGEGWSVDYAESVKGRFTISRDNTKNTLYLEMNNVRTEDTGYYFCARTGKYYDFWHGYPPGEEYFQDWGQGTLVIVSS
Chain of 10E8v4 S100cH (antibody) (VL): as the sequence (VL) above
Chain of 10E8v4 S100cW (antibody) (VH): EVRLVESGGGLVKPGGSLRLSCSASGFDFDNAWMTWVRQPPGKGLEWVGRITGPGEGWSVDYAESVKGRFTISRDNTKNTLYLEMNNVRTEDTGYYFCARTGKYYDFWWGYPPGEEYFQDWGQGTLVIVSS
Chain of 10E8v4 S100cW (antibody) (VL): as the sequence (VL) above

Substance | IC50, pseudovirus neutralization [2] | IC80, pseudovirus neutralization [2] | IC50, pseudovirus neutralization [3] | IC80, pseudovirus neutralization [3] | IC50, pseudovirus neutralization [5] | IC80, pseudovirus neutralization [5] | IC50, pseudovirus neutralization [6] | IC80, pseudovirus neutralization [6] | IC50, pseudovirus neutralization [7] | IC80, pseudovirus neutralization [7] | IC50, pseudovirus neutralization [8] | IC50, pseudovirus neutralization [10] | IC50, pseudovirus neutralization [11] | IC50, pseudovirus neutralization [12] | IC50, pseudovirus neutralization [13] | IC50, pseudovirus neutralization [14] | IC50, pseudovirus neutralization [15] | IC50, pseudovirus neutralization [16] | IC50, pseudovirus neutralization [17] | IC50, pseudovirus neutralization [18] | also measured
10E8v4 S100cF (antibody) | 0.073 µg/mL | 0.482 µg/mL | 0.002 µg/mL | 0.017 µg/mL | 0.001 µg/mL | 0.008 µg/mL | 0.003 µg/mL | 0.02 µg/mL | 0.097 µg/mL | 0.306 µg/mL | 0.147 µg/mL |  |  |  |  |  |  |  |  |  | IC50, pseudovirus neutralization [1]: > 50 µg/mL; IC80, pseudovirus neutralization [1]: > 50 µg/mL; IC50, pseudovirus neutralization [4]: > 50 µg/mL; IC80, pseudovirus neutralization [4]: > 50 µg/mL; IC80, pseudovirus neutralization [8]: 0.696 µg/mL; IC50, pseudovirus neutralization [9]: 0.001 µg/mL; IC80, pseudovirus neutralization [9]: 0.001 µg/mL
10E8v4 VL Y32P (antibody) |  |  |  |  |  |  |  |  |  |  |  | > 50 µg/mL | > 50 µg/mL | > 50 µg/mL | > 50 µg/mL | > 50 µg/mL | > 50 µg/mL | > 50 µg/mL | > 50 µg/mL | 3.2 µg/mL | 
10E8v4 VL Y32M (antibody) |  |  |  |  |  |  |  |  |  |  |  | > 50 µg/mL | > 50 µg/mL | 29.8 µg/mL | > 50 µg/mL | > 50 µg/mL | > 50 µg/mL | > 50 µg/mL | > 50 µg/mL | 1.03 µg/mL | 
10E8v4 S100cH (antibody) | 2.59 µg/mL | 10.9 µg/mL | 0.091 µg/mL | 0.488 µg/mL | 0.103 µg/mL | 0.643 µg/mL | 0.141 µg/mL | 0.966 µg/mL | 2.24 µg/mL | 6.79 µg/mL | 3.4 µg/mL |  |  |  |  |  |  |  |  |  | IC50, pseudovirus neutralization [1]: > 50 µg/mL; IC80, pseudovirus neutralization [1]: > 50 µg/mL; IC50, pseudovirus neutralization [4]: > 50 µg/mL; IC80, pseudovirus neutralization [4]: > 50 µg/mL; IC80, pseudovirus neutralization [8]: 14 µg/mL; IC50, pseudovirus neutralization [9]: 0.011 µg/mL; IC80, pseudovirus neutralization [9]: 0.046 µg/mL
10E8v4 VL Y32F (antibody) |  |  |  |  |  |  |  |  |  |  |  | > 50 µg/mL | 2 µg/mL | 0.031 µg/mL | > 50 µg/mL | 0.08 µg/mL | 0.102 µg/mL | 3.2 µg/mL | 2.25 µg/mL | 0.017 µg/mL | 
10E8v4 VL Y32W (antibody) |  |  |  |  |  |  |  |  |  |  |  | > 50 µg/mL | 1.07 µg/mL | 0.029 µg/mL | > 50 µg/mL | 0.055 µg/mL | 0.089 µg/mL | 0.719 µg/mL | 1.4 µg/mL | 0.005 µg/mL | 
10E8v4 S100cW (antibody) | 0.042 µg/mL | 0.331 µg/mL | 0.001 µg/mL | 0.007 µg/mL | 0.001 µg/mL | 0.006 µg/mL | 0.001 µg/mL | 0.012 µg/mL | 0.041 µg/mL | 0.149 µg/mL | 0.088 µg/mL | > 50 µg/mL | 0.031 µg/mL | 0.003 µg/mL | > 50 µg/mL | 0.002 µg/mL | 0.004 µg/mL | 0.107 µg/mL | 0.085 µg/mL |  | IC80, pseudovirus neutralization [8]: 0.388 µg/mL; IC50, pseudovirus neutralization [9]: 0.001 µg/mL; IC80, pseudovirus neutralization [10]: > 50 µg/mL; IC80, pseudovirus neutralization [11]: 0.26 µg/mL; IC80, pseudovirus neutralization [12]: 0.013 µg/mL; IC80, pseudovirus neutralization [13]: > 50 µg/mL; IC80, pseudovirus neutralization [14]: 0.01 µg/mL; IC80, pseudovirus neutralization [15]: 0.025 µg/mL; IC80, pseudovirus neutralization [16]: 0.295 µg/mL; IC80, pseudovirus neutralization [17]: 0.459 µg/mL; IC80, pseudovirus neutralization [18]: 0.001 µg/mL
10E8v4 VL Y32H (antibody) |  |  |  |  |  |  |  |  |  |  |  | > 50 µg/mL | 8.76 µg/mL | 0.788 µg/mL | > 50 µg/mL | 7.4 µg/mL | 1.39 µg/mL | 29.9 µg/mL | > 50 µg/mL | 0.032 µg/mL | 
10E8v4 VL Y32L (antibody) |  |  |  |  |  |  |  |  |  |  |  | > 50 µg/mL | > 50 µg/mL | 4.26 µg/mL | > 50 µg/mL | 38.6 µg/mL | 8.75 µg/mL | > 50 µg/mL | > 50 µg/mL | 0.593 µg/mL | 
10E8v4 VL Y32E (antibody) |  |  |  |  |  |  |  |  |  |  |  | > 50 µg/mL | > 50 µg/mL | 19 µg/mL | > 50 µg/mL | > 50 µg/mL | > 50 µg/mL | > 50 µg/mL | > 50 µg/mL | 0.215 µg/mL | 
